# Test results from publication PMC6780499, “Characterization, Recombinant Production and Structure-Function Analysis of NvCI, A Picomolar Metallocarboxypeptidase Inhibitor from the Marine Snail Nerita versicolor” (Marine Drugs, 2019).
# No end group written: not given here.
# Assays:
# [1] = molecular target: T1, bTAFI (Bos taurus, UniProt Q2KIG3); assay: Ki determination, tight-binding inhibition of metallocarboxypeptidase; assay type: biochemical, bovine; conditions: tight-binding equation fit; substrate AAFA 0.1mM; enzyme-inhibitor mixture not preincubated; 37 °C; means (n = 3) ± SD
# T1 sequence (Q2KIG3 115-423): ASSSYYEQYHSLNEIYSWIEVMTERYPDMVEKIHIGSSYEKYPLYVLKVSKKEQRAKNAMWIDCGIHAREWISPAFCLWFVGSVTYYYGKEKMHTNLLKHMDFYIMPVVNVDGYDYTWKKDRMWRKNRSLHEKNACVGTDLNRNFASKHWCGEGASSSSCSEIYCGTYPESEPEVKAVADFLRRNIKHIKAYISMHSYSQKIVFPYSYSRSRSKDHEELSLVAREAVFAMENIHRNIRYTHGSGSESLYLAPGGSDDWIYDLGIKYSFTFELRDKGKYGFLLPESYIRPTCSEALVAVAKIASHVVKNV
# Description: Inhibitory activities against CPA- and CPB-type forms (bovine and human variants of CPA1, CPA2, CPA4, CPB1, and TAFI) were assayed for all extracts, subject to the experimental conditions that enzyme (E), substrate (S) and inhibitor (I) concentrations as well as the [I]/[E] ratio and preincubation time followed the requirements for tight-binding inhibitor assays. Similar approaches were followed to measure the activities of proteases of different catalytic types, like pepsin, papain, trypsin and subtilisin [45, 46, 47, 48]. All assays were performed in triplicate at 25 °C in a multiplexed manner. For 96-well assays an iEMS spectrophotometer reader/dispenser FM (Labsystems, Finland) was used with a final reaction volume of 250 μL. […] The reactions were followed at 5 s intervals for 5 min and recorded as initial velocities. […]
# The Ki values of natural and recombinant NvCI against bCPA1, hCPA1, hCPA2, rat CPA3, hCPA4, hCPB1, bTAFI, hTAFI, hCPD and hCPZ were determined by measuring the enzymatic residual activity (Vi/V0 = a) at different inhibitor concentrations and using a fixed enzyme and substrate concentrations as described above, where vi and v0 are the fraction of enzymatic activity in the presence and absence of inhibitor, respectively, in terms of initial velocities. […]
# [2] = molecular target: T2, hCPB (Homo sapiens, UniProt P15086); assay: as above; assay type: biochemical; conditions: tight-binding equation fit, equilibrium conditions; substrate AAFA 0.1mM; preincubation 15 min; 37 °C; means (n = 3) ± SD
# T2 sequence (P15086 111-417): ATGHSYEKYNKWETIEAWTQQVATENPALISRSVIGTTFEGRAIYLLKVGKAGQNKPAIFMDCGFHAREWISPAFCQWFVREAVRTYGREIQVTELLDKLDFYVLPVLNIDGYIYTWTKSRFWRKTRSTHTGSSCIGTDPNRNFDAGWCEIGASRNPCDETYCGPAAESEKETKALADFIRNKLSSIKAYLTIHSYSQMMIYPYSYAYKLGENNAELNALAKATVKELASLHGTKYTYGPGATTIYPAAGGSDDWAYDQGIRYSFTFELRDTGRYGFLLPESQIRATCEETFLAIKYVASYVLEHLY
# Description: Inhibitory activities against CPA- and CPB-type forms (bovine and human variants of CPA1, CPA2, CPA4, CPB1, and TAFI) were assayed for all extracts, subject to the experimental conditions that enzyme (E), substrate (S) and inhibitor (I) concentrations as well as the [I]/[E] ratio and preincubation time followed the requirements for tight-binding inhibitor assays. Similar approaches were followed to measure the activities of proteases of different catalytic types, like pepsin, papain, trypsin and subtilisin [45, 46, 47, 48]. All assays were performed in triplicate at 25 °C in a multiplexed manner. For 96-well assays an iEMS spectrophotometer reader/dispenser FM (Labsystems, Finland) was used with a final reaction volume of 250 μL. For cuvette assays, a Cary 400 Bio spectrophotometer (Varian Inc., Palo Alto, CA, USA) spectrophotometer was used with a final reaction volume of 1 ml. The reactions were followed at 5 s intervals for 5 min and recorded as initial velocities. In the protease inhibition assays, mixtures of activity buffer, biological sample and enzyme were preincubated at 25 °C for 10min, before substrate addition. The assay conditions were as follows: for CPA-like enzymes, 7.0nM CPA, 0.1mM AAFP substrate in 20mM Tris-HCl pH 7.5, 500mMNaCl, 1% v/v dimethyl sulfoxide (DMSO), 0.05% w/v BRIJ-35 was used. For CPB-like enzymes, CPB 3.0nM CPB, 0.1mM AAFA substrate and activity buffer of 20 mM Tris-HCl pH [50].
# The Ki values of natural and recombinant NvCI against bCPA1, hCPA1, hCPA2, rat CPA3, hCPA4, hCPB1, bTAFI, hTAFI, hCPD and hCPZ were determined by measuring the enzymatic residual activity (Vi/V0 = a) at different inhibitor concentrations and using a fixed enzyme and substrate concentrations as described above, where vi and v0 are the fraction of enzymatic activity in the presence and absence of inhibitor, respectively, in terms of initial velocities. The determination of Ki values was carried out on equilibrium conditions ([E0]/Ki ≤ 10), using a previously determined preincubation time of 15 min, required to establish enzyme-inhibitor equilibrium. Working temperature was 37 °C. The best estimates of Ki values were obtained by fitting the experimental data to the equation for tight-binding inhibitors by non-linear regression using the GraphPad Prisma 5 software (GraphPad Software, Inc., San Diego, CA, USA) at p < 0.05. The real Ki values against each of these A/B-type MCPs were calculated according to the equation described by Morrison and Copeland [19, 20].
substance,measurement,setting,value
"NvCI: 53-residue, three-disulphide proteinaceous metallocarboxypeptidase inhibitor from the marine snail Nerita versicolor; major isoform; UniProt P86912 (FHVPDDRPCINPGRCPLVPDATCTFVCKAADNDFGYECQHVWTFEGQRVGCYA; disulfide (positions not given here); also: three disulphides, pairing not given here; UniProt P86912 1-53, looked up)",Ki,[1],121 ± 20.1 pM
same,Ki,[2],111 ± 4.7 pM
